Assay results reported in PMC7771068.
Read-outs that look alike come from different tables or passages of the source.

Experiments:
Assay in all cases: MST
[1] = molecular target: T1, A3G-NTD-CTD2 (wild-type NTD fused to soluble CTD2) (Homo sapiens, UniProt Q9HC16 1-384, P200A;L234K;N236A;C243A;P247K;F310K;Q318K;C321A;Q322K;C356A)
[2] = molecular target: A3G-NTD-R24A-CTD2 (Homo sapiens, UniProt Q9HC16 1-384, R24A;P200A;L234K;N236A;C243A;P247K;F310K;Q318K;C321A;Q322K;C356A)
[3] = molecular target: T1, A3G-NTD-CTD2 (wild-type NTD fused to …); remark: listed apart in the source
[4] = molecular target: T1, A3G-NTD-CTD2 (wild-type NTD fused to …); remark: listed apart in the source

T1 sequence (Q9HC16 whole entry P200A/L234K/N236A/C243A/P247K/F310K/Q318K/C321A/Q322K/C356A, the tested form may be a part): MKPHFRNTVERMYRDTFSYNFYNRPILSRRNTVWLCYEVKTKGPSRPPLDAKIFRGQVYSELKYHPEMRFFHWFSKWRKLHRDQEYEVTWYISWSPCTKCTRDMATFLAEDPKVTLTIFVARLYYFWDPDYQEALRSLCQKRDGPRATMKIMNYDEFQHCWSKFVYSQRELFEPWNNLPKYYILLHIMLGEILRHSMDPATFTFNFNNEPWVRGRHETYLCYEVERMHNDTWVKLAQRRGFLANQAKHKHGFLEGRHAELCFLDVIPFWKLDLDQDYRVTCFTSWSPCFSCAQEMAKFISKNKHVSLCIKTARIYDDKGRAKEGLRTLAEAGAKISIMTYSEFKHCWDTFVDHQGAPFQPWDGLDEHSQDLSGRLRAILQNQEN
A3G-NTD-R24A-CTD2, sequence (Q9HC16 whole entry R24A/P200A/L234K/N236A/C243A/P247K/F310K/Q318K/C321A/Q322K/C356A, the tested form may be a part): as the sequence (Q9HC16 whole entry P200A/L234K/N236A/C243A/P247K/F310K/Q318K/C321A/Q322K/C356A, the tested form may be a part) above, with R24A counted along it

Row | Binder | Kd [1] [µM] | Kd [2] [µM] | Kd [3] [µM] | Kd [4] [µM]
1 | AATCCCAAA (ssDNA) [9-nt CCC] | 20.5 |  |  | 
2 | AATTCCAATTTTTTTT (ssDNA) [16-nt CC (5'-TCC-polyT)] |  | 132 ± 2.6 | 31.4 ± 3.8 | 
3 | AATCCCAATTTTTTTT (ssDNA) [16-nt CCC (5'-TCCC-polyT)] |  | 24.6 ± 2.7 | 4.9 ± 0.1 | 6.8
